# From PMC2866327 (2010)
# Square brackets hold non-standard residues; d marks the D form. Ends that are not written are not given here.
# Biological target: insulin-degrading enzyme (recombinant human IDE) (human, UniProt P14735 1-1019)
binder,measurement,value
"Phe-[dR]-[dY] (not fully specified (residue 1, N-terminus); also: retro-inverso (reversed backbone)) [retro-inverso peptide hydroxamate Xaa-Arg-Tyr with Phe at P1']",Ki,20 µM
